# Measurements: IntAct's records for PubMed 32073997
# B1: AKT-interacting protein (Homo sapiens), Q9H8T0 (parent)
# chain: MNPFWSMSTSSVRKRSEGEEKTLTGDVKTSPPRTAPKKQLPSIPKNALPITKPTSPAPAAQSTNGTHASYGPFYLEYSLLAEFTLVVKQKLPGVYVQPSYRSALMWFGVIFIRHGLYQDGVFKFTVYIPDNYPDGDCPRLVFDIPVFHPLVDPTSGELDVKRAFAKWRRNHNHIWQVLMYARRVFYKIDTASPLNPEAAVLYEKDIQLFKSKVVDSVKVCTARLFDQPKIEDPYAISFSPWNPSVHDEAREKMLTQKKPEEQHNKSVHVAGLSWVKPGSVQPFSKEEKTVAT
# partner: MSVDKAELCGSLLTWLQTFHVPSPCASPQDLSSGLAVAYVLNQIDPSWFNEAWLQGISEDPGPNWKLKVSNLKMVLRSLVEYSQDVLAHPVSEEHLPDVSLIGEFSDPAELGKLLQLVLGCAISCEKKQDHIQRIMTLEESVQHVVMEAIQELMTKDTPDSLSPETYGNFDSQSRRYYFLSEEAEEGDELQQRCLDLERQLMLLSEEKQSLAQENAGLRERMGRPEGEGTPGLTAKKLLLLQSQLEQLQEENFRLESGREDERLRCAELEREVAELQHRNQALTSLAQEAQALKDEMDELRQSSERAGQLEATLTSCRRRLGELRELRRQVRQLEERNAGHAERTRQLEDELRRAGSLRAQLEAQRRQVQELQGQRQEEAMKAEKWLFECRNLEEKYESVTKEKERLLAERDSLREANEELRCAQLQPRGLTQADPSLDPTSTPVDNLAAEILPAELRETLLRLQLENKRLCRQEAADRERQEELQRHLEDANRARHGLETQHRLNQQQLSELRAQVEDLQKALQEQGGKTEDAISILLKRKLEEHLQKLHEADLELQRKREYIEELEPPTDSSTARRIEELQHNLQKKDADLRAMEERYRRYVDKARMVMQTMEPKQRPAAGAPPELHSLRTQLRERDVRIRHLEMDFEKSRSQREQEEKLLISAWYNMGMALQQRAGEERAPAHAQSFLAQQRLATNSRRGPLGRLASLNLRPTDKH
# B2: AKT-interacting protein (Homo sapiens), Q9H8T0 (parent)
# chain: B1 chain
# partner: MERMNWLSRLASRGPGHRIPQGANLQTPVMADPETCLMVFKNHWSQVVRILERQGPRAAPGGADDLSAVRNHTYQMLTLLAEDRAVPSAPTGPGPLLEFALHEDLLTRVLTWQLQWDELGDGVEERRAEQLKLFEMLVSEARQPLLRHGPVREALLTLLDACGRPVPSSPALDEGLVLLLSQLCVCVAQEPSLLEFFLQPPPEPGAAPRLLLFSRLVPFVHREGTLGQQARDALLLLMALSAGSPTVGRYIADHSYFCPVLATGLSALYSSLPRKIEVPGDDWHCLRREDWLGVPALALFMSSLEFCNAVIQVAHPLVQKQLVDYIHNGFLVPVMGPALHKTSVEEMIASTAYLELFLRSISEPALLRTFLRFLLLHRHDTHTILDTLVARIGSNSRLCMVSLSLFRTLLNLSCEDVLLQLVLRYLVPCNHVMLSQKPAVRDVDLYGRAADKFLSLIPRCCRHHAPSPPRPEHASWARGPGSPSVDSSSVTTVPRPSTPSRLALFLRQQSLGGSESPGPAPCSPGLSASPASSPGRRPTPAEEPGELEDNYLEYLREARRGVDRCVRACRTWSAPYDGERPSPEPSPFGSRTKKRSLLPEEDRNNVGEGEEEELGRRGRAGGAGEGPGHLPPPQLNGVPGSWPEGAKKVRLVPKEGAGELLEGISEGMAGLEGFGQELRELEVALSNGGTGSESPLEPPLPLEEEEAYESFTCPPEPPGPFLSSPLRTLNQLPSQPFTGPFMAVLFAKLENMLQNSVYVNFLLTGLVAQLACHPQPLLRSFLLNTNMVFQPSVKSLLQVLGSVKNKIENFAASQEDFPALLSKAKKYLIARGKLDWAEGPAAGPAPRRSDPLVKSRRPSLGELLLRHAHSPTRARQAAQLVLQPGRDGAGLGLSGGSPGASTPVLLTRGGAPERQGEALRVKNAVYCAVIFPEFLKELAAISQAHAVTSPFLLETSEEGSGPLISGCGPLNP
# B3: AKT-interacting protein (Homo sapiens), Q9H8T0 (parent)
# chain: B1 chain
# partner: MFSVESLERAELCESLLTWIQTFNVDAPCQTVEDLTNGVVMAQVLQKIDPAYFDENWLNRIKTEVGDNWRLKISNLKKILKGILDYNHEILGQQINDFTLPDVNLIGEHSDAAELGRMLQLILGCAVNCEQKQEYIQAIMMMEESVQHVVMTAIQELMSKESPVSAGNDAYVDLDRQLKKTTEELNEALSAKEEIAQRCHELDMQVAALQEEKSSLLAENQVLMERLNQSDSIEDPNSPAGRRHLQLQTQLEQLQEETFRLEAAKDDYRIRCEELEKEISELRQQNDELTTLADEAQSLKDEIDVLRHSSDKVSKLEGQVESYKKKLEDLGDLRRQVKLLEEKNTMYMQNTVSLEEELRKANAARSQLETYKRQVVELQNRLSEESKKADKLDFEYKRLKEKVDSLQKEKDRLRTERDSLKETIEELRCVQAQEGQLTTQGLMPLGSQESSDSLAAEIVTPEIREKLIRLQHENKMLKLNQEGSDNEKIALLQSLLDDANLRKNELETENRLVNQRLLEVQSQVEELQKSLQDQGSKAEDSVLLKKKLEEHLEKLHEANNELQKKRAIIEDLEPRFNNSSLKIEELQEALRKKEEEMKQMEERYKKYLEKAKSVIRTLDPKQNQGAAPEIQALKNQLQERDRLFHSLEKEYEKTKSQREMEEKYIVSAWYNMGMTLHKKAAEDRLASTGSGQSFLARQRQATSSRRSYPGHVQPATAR
# Variants of: B1
# Details: with hook2_human HOOK2, Q96ED9
row,effect of a mutation on the interaction,Variant
1,disrupting interaction strength,W106A;F107A

# Variants of: B2
# Details: with FHIP1B
row,effect of a mutation on the interaction,Variant
1,disrupting interaction strength,W106A;F107A

# Variants of: B3
# Details: with hook3_human HOOK3, Q86VS8
row,effect of a mutation on the interaction,Variant
1,decreasing interaction strength,W106A;F107A
